Assay results from PMC10352241, “Structure and assembly of the NOT10:11 module of the CCR4-NOT complex” (Communications Biology, 2023).

B1: GST-Hs NOT11-C (residues D257–D498) (domain or fragment)
chain: not shown
notes: human NOT11 (CNOT11), residues D257–D498; The GST tag is HRV3C-cleavable (plasmid pnEA-pG); also called GST-NOT11-C; NOT11 construct lacking the NOT11N domain; source: E. coli BL21 (DE3) Star, purified (glutathione agarose, HiTrap Q, Superdex 200); not shown: GST, N-terminal, kept
B2: Hs NOT1-N (residues D4–N682) (domain or fragment, human, UniProt A5YKK6 4-682, looked up)
chain: DSLSLALSQISYLVDNLTKKNYRASQQEIQHIVNRHGPEADRHLLRCLFSHVDFSGDGKSSGKDFHQTQFLIQECALLITKPNFISTLSYAIDNPLHYQKSLKPAPHLFAQLSKVLKLSKVQEVIFGLALLNSSSSDLRGFAAQFIKQKLPDLLRSYIDADVSGNQEGGFQDIAIEVLHLLLSHLLFGQKGAFGVGQEQIDAFLKTLRRDFPQERCPVVLAPLLYPEKRDILMDRILPDSGGVAKTMMESSLADFMQEVGYGFCASIEECRNIIVQFGVREVTAAQVARVLGMMARTHSGLTDGIPLQSISAPGSGIWSDGKDKSDGAQAHTWNVEVLIDVLKELNPSLNFKEVTYELDHPGFQIRDSKGLHNVVYGIQRGLGMEVFPVDLIYRPWKHAEGQLSFIQHSLINPEIFCFADYPCHTVATDILKAPPEDDNREIATWKSLDLIESLLRLAEVGQYEQVKQLFSFPIKHCPDMLVLALLQINTSWHTLRHELISTLMPIFLGNHPNSAIILHYAWHGQGQSPSIRQLIMHAMAEWYMRGEQYDQAKLSRILDVAQDLKALSMLLNGTPFAFVIDLAALASRREYLKLDKWLTDKIREHGEPFIQACMTFLKRRCPSILGGLAPEKDQPKSAQLPPETLATMLACLQACAGSVSQELSETILTMVANCSNVMN
notes: human NOT1 (CNOT1), residues D4–N682; The purification of NOT1-N is not described; source: E. coli BL21 (DE3) Star, purified

Key:
Details in all cases: both partners purified
[1] = target: T1, MBP-Hs NOT10-C (residues T351–Q707) (human, UniProt Q9H9A5 351-707); assay: pull-down; GST pulldown with recombinant proteins; GST-NOT11 constructs as bait, MBP-tagged NOT10 constructs as prey (Fig. 3b–f; human and Drosophila)
T1 construct: human NOT10 (CNOT10), residues T351–Q707; The MBP tag is HRV3C-cleavable; no cleavage step is described; also called C-terminal portion of NOT10; source: E. coli BL21 (DE3) Star, purified (amylose resin, HiTrap Q, Superdex 200)
T1 sequence (Q9H9A5 351-707): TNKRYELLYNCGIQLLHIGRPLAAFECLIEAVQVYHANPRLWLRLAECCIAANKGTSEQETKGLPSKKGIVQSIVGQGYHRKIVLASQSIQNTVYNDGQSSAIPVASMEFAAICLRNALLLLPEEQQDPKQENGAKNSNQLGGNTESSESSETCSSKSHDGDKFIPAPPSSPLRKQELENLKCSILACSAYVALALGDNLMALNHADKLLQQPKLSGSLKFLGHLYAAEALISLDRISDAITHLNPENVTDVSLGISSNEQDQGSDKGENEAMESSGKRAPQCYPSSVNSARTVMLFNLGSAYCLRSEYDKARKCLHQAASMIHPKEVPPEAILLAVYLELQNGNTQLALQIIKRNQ

[2] = target: T2, MBP-Hs NOT10-L (residues D25–Q707) (human, UniProt Q9H9A5 25-707); assay: as above
T2 construct: human NOT10 (CNOT10), residues D25–Q707; The MBP tag is HRV3C-cleavable (plasmid pnYC-pM); no cleavage step is described; also called isolated NOT10; source: E. coli BL21 (DE3) Star, purified (amylose resin, HiTrap Q, Superdex 200)
T2 sequence (Q9H9A5 25-707): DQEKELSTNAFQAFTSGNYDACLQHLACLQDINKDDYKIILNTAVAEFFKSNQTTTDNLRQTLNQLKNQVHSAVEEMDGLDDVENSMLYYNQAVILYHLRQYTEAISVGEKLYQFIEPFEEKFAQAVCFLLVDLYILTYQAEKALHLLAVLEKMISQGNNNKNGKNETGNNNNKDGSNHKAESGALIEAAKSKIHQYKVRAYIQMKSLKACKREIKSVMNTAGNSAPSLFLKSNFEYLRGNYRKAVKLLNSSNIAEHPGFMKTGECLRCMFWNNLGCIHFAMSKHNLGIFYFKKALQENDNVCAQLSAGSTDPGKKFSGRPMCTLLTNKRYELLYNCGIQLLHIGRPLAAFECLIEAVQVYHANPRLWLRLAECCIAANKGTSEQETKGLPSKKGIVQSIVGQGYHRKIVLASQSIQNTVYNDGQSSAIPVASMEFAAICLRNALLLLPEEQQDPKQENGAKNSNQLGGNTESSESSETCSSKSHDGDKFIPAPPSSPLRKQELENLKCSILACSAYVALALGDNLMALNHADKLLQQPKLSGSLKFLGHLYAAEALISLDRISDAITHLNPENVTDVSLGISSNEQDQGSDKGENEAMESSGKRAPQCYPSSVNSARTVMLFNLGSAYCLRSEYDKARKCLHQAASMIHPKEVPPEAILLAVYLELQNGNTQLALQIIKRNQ

[3] = target: T3, NOT10:GST-NOT11 complex (Hs NOT10-L with GST-NOT11-C) (human, UniProt Q9H9A5 25-707; Q9UKZ1 257-498); assay: pull-down; purified proteins; GST-NOT11-C alone or the NOT10:GST-NOT11 complex as bait, NOT1-N as prey (Fig. 3g)
T3 construct: human NOT10 (CNOT10), NOT10-L, residues D25–Q707, from pnYC-vM with a TEV-cleavable MBP tag; human NOT11 (CNOT11), NOT11-C, residues D257–D498; also called NOT10:NOT11 heterodimer; source: E. coli BL21 (DE3) Star, co-expressed, purified (glutathione agarose, TEV cleavage of MBP, HiTrap Heparin, Superdex 200); not shown: MBP, N-terminal, cleaved; GST, N-terminal, kept
T3 sequence (Q9H9A5 25-707, chain 1 of 2, other chains not shown): as the sequence (Q9H9A5 25-707) above

binding result [1]	binding result [2]	binding result [3]	Binder
binds	binds		B1
		binds	B2
